Experimental data published in paper PMC3430366.

Key:
[1] = target: TDPX1 Cys35Ala (Leishmania major (Friedlin strain)); assay: SDS-PAGE after reduction or oxidation
[2] = target: TDPX1 Cys83Ala (Leishmania major (Friedlin strain)); assay: SDS-PAGE after reduction or oxidation

TDPX1 Cys35Ala (enzyme)
stoichiometry N [1]: 2

TDPX1 Cys83Ala (enzyme)
stoichiometry N [2]: 2
